This is an account of results in article PMC10682658, “Revisiting bacterial cytolethal distending toxin structure and function” (Frontiers in Cellular and Infection Microbiology, 2023).

Bounds are passed on as bounds.

For assay [1], the target named is T1, NTA-labeled Cj-CdtA (polyhistidine-tagged Cj-CdtA labelled with NTA fluorescent dye) (Campylobacter jejuni, UniProt A1VXG4 20-268, NTA - Atto 647 N dye on the polyhistidine-tagged subunit).
T1 construct: source: recombinant, generated and purified as previously described (Eshraghi et al., 2010)
T1 sequence: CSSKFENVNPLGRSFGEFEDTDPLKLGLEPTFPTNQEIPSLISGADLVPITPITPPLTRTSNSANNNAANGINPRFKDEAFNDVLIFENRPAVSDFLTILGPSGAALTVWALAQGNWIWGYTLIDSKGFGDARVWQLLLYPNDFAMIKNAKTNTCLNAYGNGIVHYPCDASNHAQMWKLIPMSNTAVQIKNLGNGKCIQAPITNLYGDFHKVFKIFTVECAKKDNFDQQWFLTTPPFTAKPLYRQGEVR
Put plainly: MST; NTA dye-labeled polyhistidine-tagged subunit (0.1 μM) with unlabeled subunit without polyhistidine tag (0.02/0.04-20 μM), 1 h at 37°C, read at 37°C; Monolith NT.115; fraction bound fit to log [Cj-CDT subunit] vs response; KD of A + B* called apparent. As to conditions: both partners purified.

Assay [2] deals with T2, NTA-labeled Cj-CdtB (polyhistidine-tagged Cj-CdtB labelled with NTA fluorescent dye) (Campylobacter jejuni, UniProt Q0PC57 1-265, NTA - Atto 647 N dye on the polyhistidine-tagged subunit).
T2 construct: source: recombinant, generated and purified as previously described (Eshraghi et al., 2010)
The assay is described as above. As to conditions: both partners purified.

B1: unlabeled Cj-CdtC with the polyhistidine tag removed (natural protein)
chain: TPTGDLKDFTEMVSIRSLETGIFLSAFRDTSKDPIDQNWNIKEIVLSDELKQKDKLADELPFGYVQFTNPKESDLCLAILEDGTFGAKSCQDDLKDGKLETVFSIMPTTTSAVQIRSLVLESDECIVTFFNPNIPIQKRFGIAPCTLDPIFFAEVNELMIITPPLTAATPLE
notes: source: recombinant, generated and purified as previously described (Eshraghi et al., 2010); polyhistidine removed with biotinylated thrombin
For the molecule B1, the results for the Kd in assay [1] and in assay [2] were 650 ± 100 nM and 480 ± 100 nM, respectively. Moreover, the entries for the “first concentration of titrant yielding detectable signal above background” value in assay [1] and in assay [2] were 0.31 µM and 0.15 µM, respectively.

B2: unlabeled Cj-CdtA with the polyhistidine tag removed (natural protein)
chain: T1 sequence
notes: as for B1
For the molecule B2, in assay [2], the Kd is over 20000 nM and the “first concentration of titrant yielding detectable signal above background” value came to 2 µM.
